# Measured values as given in article PMC2168396 (The EMBO Journal, 2007).
# Ends that are not written are not given here.
# Key:
# [1] = molecular target: filamentous actin (F-actin) from rabbit skeletal muscle (rabbit, UniProt P68135 1-377); assay: co-sedimentation
# SEC + other: NMR = molecular target: the molecule itself; assay: SEC + other: NMR
# crystal structure = molecular target: the molecule itself; assay: crystal structure
Binder,co-sedimentation pellet (% of WT) [1],stoichiometry N (SEC + other: NMR),binding result (crystal structure)
"talin 2300–2541 Q2388R (domain or fragment, mouse, UniProt P26039 2300-2541, looked up) DPTVIAENELLGAAAAIEAAAKKLEQLKPRAKPKEADESLNFEEQILEAAKSIAAATSALVKAASAAQRELVAQGKVGAIPANALDDGRWSQGLISAARMVAAATNNLCEAANAAVQGHASQEKLISSAKQVAASTAQLLVACKVKADQDSEAMKRLQAAGNAVKRASDNLVKAAQKAAAFEDQENETVVVKEKMVGGIAQIIAAQEEMLRKERELEEARKKLAQIRQQQYKFLPSELRDEH",102 ± 9 % of WT,2,
"talin 2300–2541 Q2437E (domain or fragment, mouse, UniProt P26039 2300-2541, looked up) DPTVIAENELLGAAAAIEAAAKKLEQLKPRAKPKEADESLNFEEQILEAAKSIAAATSALVKAASAAQRELVAQGKVGAIPANALDDGQWSQGLISAARMVAAATNNLCEAANAAVQGHASQEKLISSAKQVAASTAELLVACKVKADQDSEAMKRLQAAGNAVKRASDNLVKAAQKAAAFEDQENETVVVKEKMVGGIAQIIAAQEEMLRKERELEEARKKLAQIRQQQYKFLPSELRDEH",62 ± 13 % of WT,2,
"talin 2300–2541 R2510A (domain or fragment, mouse, UniProt P26039 2300-2541, looked up) DPTVIAENELLGAAAAIEAAAKKLEQLKPRAKPKEADESLNFEEQILEAAKSIAAATSALVKAASAAQRELVAQGKVGAIPANALDDGQWSQGLISAARMVAAATNNLCEAANAAVQGHASQEKLISSAKQVAASTAQLLVACKVKADQDSEAMKRLQAAGNAVKRASDNLVKAAQKAAAFEDQENETVVVKEKMVGGIAQIIAAQEEMLAKERELEEARKKLAQIRQQQYKFLPSELRDEH",77 ± 5 % of WT,2,
"talin 2300–2541 R2513A (domain or fragment, mouse, UniProt P26039 2300-2541, looked up) DPTVIAENELLGAAAAIEAAAKKLEQLKPRAKPKEADESLNFEEQILEAAKSIAAATSALVKAASAAQRELVAQGKVGAIPANALDDGQWSQGLISAARMVAAATNNLCEAANAAVQGHASQEKLISSAKQVAASTAQLLVACKVKADQDSEAMKRLQAAGNAVKRASDNLVKAAQKAAAFEDQENETVVVKEKMVGGIAQIIAAQEEMLRKEAELEEARKKLAQIRQQQYKFLPSELRDEH",66 ± 14 % of WT,2,
"talin 2300–2541 V2376D (domain or fragment, mouse, UniProt P26039 2300-2541, looked up) DPTVIAENELLGAAAAIEAAAKKLEQLKPRAKPKEADESLNFEEQILEAAKSIAAATSALVKAASAAQRELVAQGKDGAIPANALDDGQWSQGLISAARMVAAATNNLCEAANAAVQGHASQEKLISSAKQVAASTAQLLVACKVKADQDSEAMKRLQAAGNAVKRASDNLVKAAQKAAAFEDQENETVVVKEKMVGGIAQIIAAQEEMLRKERELEEARKKLAQIRQQQYKFLPSELRDEH",95 ± 5 % of WT,2,
"talin 2300–2541 V2444D (domain or fragment, mouse, UniProt P26039 2300-2541, looked up) DPTVIAENELLGAAAAIEAAAKKLEQLKPRAKPKEADESLNFEEQILEAAKSIAAATSALVKAASAAQRELVAQGKVGAIPANALDDGQWSQGLISAARMVAAATNNLCEAANAAVQGHASQEKLISSAKQVAASTAQLLVACKDKADQDSEAMKRLQAAGNAVKRASDNLVKAAQKAAAFEDQENETVVVKEKMVGGIAQIIAAQEEMLRKERELEEARKKLAQIRQQQYKFLPSELRDEH",54 ± 10 % of WT,2,
"talin 2334–2541 (upstream helix deleted) (domain or fragment, mouse, UniProt P26039 2334-2541, looked up) EADESLNFEEQILEAAKSIAAATSALVKAASAAQRELVAQGKVGAIPANALDDGQWSQGLISAARMVAAATNNLCEAANAAVQGHASQEKLISSAKQVAASTAQLLVACKVKADQDSEAMKRLQAAGNAVKRASDNLVKAAQKAAAFEDQENETVVVKEKMVGGIAQIIAAQEEMLRKERELEEARKKLAQIRQQQYKFLPSELRDEH",262 ± 18 % of WT,2,
"MVGGIAQIIAAQEEMLRKERELEEARKKLAQIRQQQYKFLPSELRDEH (domain or fragment, mouse, UniProt P26039 2494-2541, looked up, also: selenomethionine in derivative used for phasing) [talin 2494–2541 (dimerisation domain)]",,,binds
